In patent US20150322162A1:

Experiments:
[1] = target: HER2-Fc (#1129-ER, R&D Systems) (UniProt P04626); test: SPR, Biacore T100; antibody captured by human Fab binder on CM5 chip, HER2-Fc injected
[2] = target: c-Met-Fc (#358-MT/CF, R&D Systems) (UniProt P08581); test: SPR, Biacore T100; antibody captured by human Fab binder on CM5 chip, c-Met-Fc injected
Chain of UniProt P08581 (P08581 25-932 limits assumed): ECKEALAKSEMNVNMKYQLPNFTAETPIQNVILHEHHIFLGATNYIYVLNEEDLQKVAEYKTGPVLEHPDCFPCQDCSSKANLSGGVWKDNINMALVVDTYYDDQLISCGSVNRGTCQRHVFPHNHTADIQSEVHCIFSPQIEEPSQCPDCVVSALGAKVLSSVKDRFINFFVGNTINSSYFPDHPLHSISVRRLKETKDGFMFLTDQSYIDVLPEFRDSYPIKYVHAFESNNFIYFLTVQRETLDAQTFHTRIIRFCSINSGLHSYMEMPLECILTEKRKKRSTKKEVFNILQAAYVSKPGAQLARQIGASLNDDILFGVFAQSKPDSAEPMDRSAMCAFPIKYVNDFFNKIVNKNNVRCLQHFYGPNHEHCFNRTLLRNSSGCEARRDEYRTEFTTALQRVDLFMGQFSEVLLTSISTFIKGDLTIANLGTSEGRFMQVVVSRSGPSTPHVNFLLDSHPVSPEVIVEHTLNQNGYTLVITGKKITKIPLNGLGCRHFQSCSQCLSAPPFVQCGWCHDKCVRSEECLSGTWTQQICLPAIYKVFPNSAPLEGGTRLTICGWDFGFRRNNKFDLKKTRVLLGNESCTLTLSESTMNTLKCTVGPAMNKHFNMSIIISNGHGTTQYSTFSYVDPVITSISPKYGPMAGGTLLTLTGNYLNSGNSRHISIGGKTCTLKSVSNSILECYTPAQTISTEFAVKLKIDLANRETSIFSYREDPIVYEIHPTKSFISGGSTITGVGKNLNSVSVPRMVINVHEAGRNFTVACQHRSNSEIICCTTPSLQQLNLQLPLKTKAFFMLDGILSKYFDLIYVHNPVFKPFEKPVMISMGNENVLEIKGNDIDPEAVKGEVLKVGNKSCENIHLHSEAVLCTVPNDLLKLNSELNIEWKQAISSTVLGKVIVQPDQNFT

Row | Kd [1] | koff [1] | kon [1] | Kd [2] | koff [2] | kon [2] | Binder
1 | < 10 pM | < 5.8e-05 s⁻¹ | 200000 M⁻¹ s⁻¹ | 40 pM | 1.9e-05 s⁻¹ | 500000 M⁻¹ s⁻¹ | MH2-12 anti-c-Met/anti-HER2 bispecific antibody (bispecific antibody, part only; not given: nothing needed for binding, IgG2, not shown: another chain or arm of the molecule; small tags and cut ends) heavy: EVQLVESGGGLVQPGGSLRLSCAASGFTFTDYYMSWVRQAPGKGLEWLGFIRNKANGYTTEYSASVKGRFTISRDNSKNTLYLQMNSLRAEDTAVYYCARDNWFAYWGQGTLVTVSSASTKGPSVFPLAPCSRSTSESTAALGCLVKDYFPEPVTVSWNSGALTSGVHTFPAVLQSSGLYSLSSVVTVPSSNFGTQTYTCNVDHKPSNTKVDKTVERKCCVECPPCPAPPVAGPSVFLFPPKPKDTLMISRTPEVTCVVVDVSHEDPEVQFNWYVDGVEVHNAKTKPREEQFNSTFRVVSVLTVVHQDWLNGKEYKCKVSNKGLPAPIEKTISKTKGQPREPQVYTLPPSREEMTKNQVSLTCLVKGFYPSDIAVEWESNGQPENNYKTTPPMLDSDGSFFLYSKLTVDKSRWQQGNVFSCSVMHEALHNHYTQKSLSLSPGKGGGGSGGGGSEVQLVQSGAEVKKPGESLKISCKGSGYSFTSYWIGWVRQMPGKGLEWMGIIYPGDSDTRYSPSFQGQVTISADKSISTAYLQWSSLKASDTAMYYCARHYYDSSGYSYFPDYWGQGTLVTVSS VL: QTVVTQEPSFSVSPGGTVTLTCGLSSGSVSTSYYPSWYQQTPGQAPRTLIYSTNTRSSGVPDRFSGSILGNKAALTITGAQADDESDYYCVLYMGSGIWVFGGGTKLTVL light: DIQMTQSPSSLSASVGDRVTITCKSSQSLLASGNQNNYLAWYQQKPGKAPKMLIIWASTRVSGVPSRFSGSGSGTDFTLTISSLQPEDFATYYCQQSYSRPYTFGQGTKVEIKRTVAAPSVFIFPPSDEQLKSGTASVVCLLNNFYPREAKVQWKVDNALQSGNSQESVTEQDSKDSTYSLSSTLTLSKADYEKHKVYACEVTHQGLSSPVTKSFNRGEC
2 | < 10 pM | < 1.3e-05 s⁻¹ | 820000 M⁻¹ s⁻¹ | 30 pM | 1.5e-05 s⁻¹ | 590000 M⁻¹ s⁻¹ | MH2-18 anti-c-Met/anti-HER2 bispecific antibody (bispecific antibody, part only; not given: nothing needed for binding, IgG2, not shown: another chain or arm of the molecule; small tags and cut ends) heavy: EVQLVESGGGLVQPGGSLRLSCAASGFTFTDYYMSWVRQAPGKGLEWLGFIRNKANGYTTEYSASVKGRFTISRDNSKNTLYLQMNSLRAEDTAVYYCARDNWFAYWGQGTLVTVSSASTKGPSVFPLAPCSRSTSESTAALGCLVKDYFPEPVTVSWNSGALTSGVHTFPAVLQSSGLYSLSSVVTVPSSNFGTQTYTCNVDHKPSNTKVDKTVERKCCVECPPCPAPPVAGPSVFLFPPKPKDTLMISRTPEVTCVVVDVSHEDPEVQFNWYVDGVEVHNAKTKPREEQFNSTFRVVSVLTVVHQDWLNGKEYKCKVSNKGLPAPIEKTISKTKGQPREPQVYTLPPSREEMTKNQVSLTCLVKGFYPSDIAVEWESNGQPENNYKTTPPMLDSDGSFFLYSKLTVDKSRWQQGNVFSCSVMHEALHNHYTQKSLSLSPGKGGGGSGGGGSEVQLVQSGAEVKKPGESLKISCKGSGYSFTSYWIGWVRQMPGKGLEWMGIIYPGDSDTRYSPSFQGQVTISADKSISTAYLQWSSLKASDTAMYYCARLVVGANPPTYYFDYWGQGTLVTVSS VL: QAVVTQEPSFSVSPGGTVTLTCGLSSGSVSTSYYPSWYQQTPGQAPRTLIYSTNTRSSGVPDRFSGSILGNKAALTITGAQTDDESDYYCVLYMGSGISLFGGGTKVTVL light: DIQMTQSPSSLSASVGDRVTITCKSSQSLLASGNQNNYLAWYQQKPGKAPKMLIIWASTRVSGVPSRFSGSGSGTDFTLTISSLQPEDFATYYCQQSYSRPYTFGQGTKVEIKRTVAAPSVFIFPPSDEQLKSGTASVVCLLNNFYPREAKVQWKVDNALQSGNSQESVTEQDSKDSTYSLSSTLTLSKADYEKHKVYACEVTHQGLSSPVTKSFNRGEC
